In data set [1] the target is MtbRNAP core (alpha2 beta beta' omega);sigma B;RbpA R79A (Mycobacterium …, UniProt P9WGZ1;P9WGY9;P9WGY7;P9WGY5;P9WGI5;P9WHJ5 1-347;1-1178;1-1316;1-110;1-323;1-111, ||R79A). Nature of the data set: KMnO4 footprinting.
Data set [2] concerns the target MtbRNAP core (alpha2 beta beta' omega);sigma B;RbpA KKAA (Mycobacterium …, UniProt P9WGZ1;P9WGY9;P9WGY7;P9WGY5;P9WGI5;P9WHJ5 1-347;1-1178;1-1316;1-110;1-323;1-111, ||K73A;K74A). Nature of the data set: EMSA. A general note: In EMSA bound probe runs differently from free probe, usually more slowly.
Data set [3] has as its target T1, MtbRNAP core (alpha2 beta beta' omega);sigma B (Mycobacterium …, UniProt P9WGZ1;P9WGY9;P9WGY7;P9WGY5;P9WGI5 1-347;1-1178;1-1316;1-110;1-323, |). As to the kind of experiment: EMSA.
The target of data set [4] is MtbRNAP core (alpha2 beta beta' omega);sigma B;RbpA (Mycobacterium …, UniProt P9WGZ1;P9WGY9;P9WGY7;P9WGY5;P9WGI5;P9WHJ5 1-347;1-1178;1-1316;1-110;1-323;1-111, ||). As to the kind of experiment: EMSA.
The target in data set [5] is T1, MtbRNAP core (alpha2 beta beta' …). Nature of the data set: EMSA. The source holds these as a separate data set.

B1: sigAP-TGTG (dsDNA)
DNA 1: CACTGAAACTTGCCCGCTCGGGCTGTACTCGTGCGCAGTTGTGTTACAATGGTCAGCGGCGGCCGCCCGACCGATAGCGCGCGAGTATTCACGCTGATATCAACGC
DNA 2: GCGTTGATATCAGCGTGAATACTCGCGCGCTATCGGTCGGGCGGCCGCCGCTGACCATTGTAACACAACTGCGCACGAGTACAGCCCGAGCGGGCAAGTTTCAGTG
For B1, the binding result in data set [1] and in data set [2] was “binds” throughout. Moreover, the Kd (usually a measure of binding affinity in units of concentration) in data set [3] turned out to be 117 nM; in data set [4] it was 42 nM.

B2: sigAP-TG1 (dsDNA)
DNA 1: CACTGAAACTTGCCCGCTCGGGCTGTACTCGTGCGCAGTAATGTTACAATGGTCAGCGGCGGCCGCCCGACCGATAGCGCGCGAGTATTCACGCTGATATCAACGC
DNA 2: GCGTTGATATCAGCGTGAATACTCGCGCGCTATCGGTCGGGCGGCCGCCGCTGACCATTGTAACATTACTGCGCACGAGTACAGCCCGAGCGGGCAAGTTTCAGTG
For the molecule B2, the binding result in data set [5] is “binds”.

The values above are taken from article PMC6212719.
